Test results reported in IntAct's records for PubMed 25260751.

B1: Mitogen-activated protein kinase kinase kinase 1 (Rattus norvegicus (Rat)), Q62925 (parent)
chain: MAAAAGDRASSSGFPGAAAASPEAGGGGGALQGSGAPAAGAGLLRETGSAGRERADWRRQQLRKVRSVELDQLPEQPLFLTASPPCPSTSPSPEPADAAAGASGFQPAAGPPPPGAASRCGSHSAELAAARDSGARSPAGAEPPSAAAPSGREMENKETLKGLHKMDDRPEERMIREKLKATCMPAWKHEWLERRNRRGPVVVKPIPIKGDGSEMSNLAAELQGEGQAGSAAPAPKGRRSPSPGSSPSGRSGKPESPGVRRKRVSPVPFQSGRITPPRRAPSPDGFSPYSPEETSRRVNKVMRARLYLLQQIGPNSFLIGGDSPDNKYRVFIGPQNCSCGRGTFCIHLLFVMLRVFQLEPSDPMLWRKTLKNFEVESLFQKYHSRRSSRIKAPSRNTIQKFVSRMSNCHTLSSSSTSTSSSENSIKDEEEQMCPICLLGMLDEESLTVCEDGCRNKLHHHCMSIWAEECRRNREPLICPLCRSKWRSHDFYSHELSSPVDSPTSLRGVQQPSSPQQPVAGSQRRNQESNFNLTHYGTQQIPPAYKDLAEPWIQAFGMELVGCLFSRNWNVREMALRRLSHDVSGALLLANGESTGTSGGGSGGSLSAGAASGSSQPSISGDVVEAFCSVLSIVCADPVYKVYVAALKTLRAMLVYTPCHSLAERIKLQRLLRPVVDTILVKCADANSRTSQLSISTLLELCKGQAGELAVGREILKAGSIGVGGVDYVLSCILGNQAESNNWQELLGRLCLIDRLLLEISAEFYPHIVSTDVSQAEPVEIRYKKLLSLLAFALQSIDNSHSMVGKLSRRIYLSSARMVTTVPPLFSKLVTMLSASGSSHFARMRRRLMAIADEVEIAEVIQLGSEDTLDGQQDSSQALAPPRYPESSSLEHTAHVEKTGKGLKATRLSASSEDISDRLAGVSVGLPSSATTEQPKPTVQTKGRPHSQCLNSSPLSPPQLMFPAISAPCSSAPSVPAGSVTDASKHRPRAFVPCKIPSASPQTQRKFSLQFQRTCSENRDSEKLSPVFTQSRPPPSSNIHRAKASRPVPGSTSKLGDASKNSMTLDLNSASQCDDSFGSGSNSGSAVIPSEETAFTPAEDKCRLDVNPELNSSIEDLLEASMPSSDTTVTFKSEVAVLSPEKAESDDTYKDDVNHNQKCKEKMEAEEEEALAIAMAMSASQDALPIVPQLQVENGEDIIIIQQDTPETLPGHTKANEPYREDTEWLKGQQIGLGAFSSCYQAQDVGTGTLMAVKQVTYVRNTSSEQEEVVEALREEIRMMSHLNHPNIIRMLGATCEKSNYNLFIEWMAGASVAHLLSKYGAFKESVVINYTEQLLRGLSYLHENQIIHRDVKGANLLIDSTGQRLRIADFGAAARLASKGTGAGEFQGQLLGTIAFMAPEVLRGQQYGRSCDVWSVGCAIIEMACAKPPWNAEKHSNHLALIFKIASATTAPSIPSHLSPGLRDVALRCLELQPQDRPPSRELLKHPVFRTTW

Variants of: B1
Details: with ube2n_human UBE2N

effect of a mutation on the interaction	Variant
disrupting interaction	L438A;M440A
